The record followed here is US20190321401A1 (JUNO THERAPEUTICS, published 2019).

In test [1] the target is T1, HPV 16 E7 peptide on HLA-A*02:01 (human).
T1 peptide: YMLDLQPET
In words: multimer staining.

In test [2] the target is T2, HPV 16 E6 peptide on HLA-A*02:01 (human).
T2 peptide: TIHDIILECV
Description: multimer staining.

B1: TCR 62 (TCR, V domains shown)
Valpha: AQTVTQSQPEMSVQEAETVTLSCTYDTSENNYYLFWYKQPPSRQMILVIRQEAYKQQNATENRFSVNFQKAAKSFSLKISDSQLGDTAMYFCALYTYKYIFGTGTRLKVLA
Vbeta: EAGVAQSPRYKIIEKRQSVAFWCNPISGHATLYWYQQILGQGPKLLIQFQNNGVVDDSQLPKDRFSAERLKGVDSTLKIQPAKLEDSAVYLCASSLDTRGSSYNEQFFGPGTRLTVL
Consider B1, for which the binding result in test [1] is “recognises”; in test [2] it was “no recognition”.

B2: TCR 65 (TCR, V domains shown)
Valpha: EDQVTQSPEALRLQEGESSSLNCSYTVSGLRGLFWYRQDPGKGPEFLFTLYSAGEEKEKERLKATLTKKESFLHITAPKPEDSATYLCAVQAERGSTLGRLYFGRGTQLTVWP
Vbeta: DVKVTQSSRYLVKRTGEKVFLECVQDMDHENMFWYRQDPGLGLRLIYFSYDVKMKEKGDIPEGYSVSREKKERFSLILESASTNQTSMYLCASSLWGRRNTGELFFGEGSRLTVL
For B2, the values for the binding result in test [1] and in test [2] were “no recognition” and “recognises”, respectively.
